PMC6854463, “Structural Basis for Broad HIV-1 Neutralization by the MPER-Specific Human Broadly Neutralizing Antibody LN01” (Cell Host & Microbe, 2019)
“And” between values parts separate entries of the source, which are not always exact repeats. Identical values can stand only once.

How the values were obtained:
Settings in all cases: both partners purified
[1] = target: T1, MPER-TM2 (gp41 residues 630-711, containing the complete TM region) (HIV-1 group M; Env Q74599 (HXB2-like), …, UniProt Q74599); assay: BLI; Octet Red; biotinylated IgG on Streptavidin biosensors; MPER-TM2 in 25 mM HEPES pH 7.5, 150 mM NaCl, 0.1 % Fos-Choline-12, 25°C; global fit 1:1 model or steady state analysis
T1 construct: not shown: His-tag, N-terminal, cleaved; flag-tag, N-terminal, cleaved

[2] = target: T1, MPER-TM2 (gp41 residues 630-711, …); assay: SPR
[3] = target: T2, MPER-TM1 peptide (gp41 residues 671-689) (HIV-1, strain  (6SNC maps to …)); assay: SPR
T2 construct: also called gp41 MPER-TM1; source: synthetic peptide (Smart Bioscience, Grenoble)

| Binder | Kd [1] [nM] | binding result [1] | also measured |
| --- | --- | --- | --- |
| LN01 gH/UCA (antibody, V domains shown, IgG; source: Expi293F, transient transfection (PEI), purified by protein A chromatography) VH: QLQLQESGPGLVKPSETLSLTCTVSGGSISSSSYYWGWIRQPPGKGLEWIGSIYYSGSTYYNPSLKSRVTISVDTSKNQFSLKLSSVTAADTAVYYCVRMPSHGFWSTSFSYWYFDLWGRGTLVTVSS VL: not shown | 4700 ± 1700 |  |  |
| LN01 sH/gL (antibody, V domains shown, IgG; source: Expi293F, transient transfection (PEI), purified by protein A chromatography) VH: QVQLEESGPGLVQPWGTLSLTCRVSGDSVSNDNYYWAWIRQTPGRELQVIGTIYYSGTTYYNPSLRNRVTISLDKSVNVVSLRLGSVSAADTAQYYCVRMPSHGFWSTSFSYWYFDLWGRGHFVAVSW VL: not shown | 453 ± 82 |  |  |
| LN01 recombinant IgG1 monoclonal antibody (antibody, V domains shown, also called LN01 IgG1; IgG1 LN01 antibody; source: Expi293F, transient transfection (PEI), purified by protein A chromatography) VH: QVQLEESGPGLVQPWGTLSLTCRVSGDSVSNDNYYWAWIRQTPGRELQVIGTIYYSGTTYYNPSLRNRVTISLDKSVNVVSLRLGSVSAADTAQYYCVRMPSHGFWSTSFSYWYFDLWGRGHFVAVSW VL: DIQMTQSPSSLSASVGDKVTITCRASQSVTKYLNWYQFKTGQAPRILIYGTYTLLSGVSPRFSGAGSGSLYTLTITNIQPEDFATYYCQQAHSTPWTFGQGTHVAAN | 2.3 ± 0.01 |  | Kd [2]: 13 nM; Kd [3]: 161 nM and 170 nM |
| LN01 sH/gL-FR (antibody, V domains shown, IgG; source: Expi293F, transient transfection (PEI), purified by protein A chromatography) VH: QVQLEESGPGLVQPWGTLSLTCRVSGDSVSNDNYYWAWIRQTPGRELQVIGTIYYSGTTYYNPSLRNRVTISLDKSVNVVSLRLGSVSAADTAQYYCVRMPSHGFWSTSFSYWYFDLWGRGHFVAVSW VL: DIQMTQSPSSLSASVGDRVTITCRASQSVTKYLNWYQQKPGKAPKLLIYGTYSLQSGVPSRFSGSGSGTDFTLTISSLQPEDFATYYCQQAHSTPWTFGQGTKVEIK | 7 ± 0.03 |  |  |
| LN01 gH/sL (antibody, V domains shown, IgG; source: Expi293F, transient transfection (PEI), purified by protein A chromatography) VH: QLQLQESGPGLVKPSETLSLTCTVSGGSISSSSYYWGWIRQPPGKGLEWIGSIYYSGSTYYNPSLKSRVTISVDTSKNQFSLKLSSVTAADTAVYYCVRMPSHGFWSTSFSYWYFDLWGRGTLVTVSS VL: DIQMTQSPSSLSASVGDKVTITCRASQSVTKYLNWYQFKTGQAPRILIYGTYTLLSGVSPRFSGAGSGSLYTLTITNIQPEDFATYYCQQAHSTPWTFGQGTHVAAN | 6.2 ± 0.02 |  |  |
| LN01 gH/gL (antibody, V domains shown, IgG; source: Expi293F, transient transfection (PEI), purified by protein A chromatography) VH: QLQLQESGPGLVKPSETLSLTCTVSGGSISSSSYYWGWIRQPPGKGLEWIGSIYYSGSTYYNPSLKSRVTISVDTSKNQFSLKLSSVTAADTAVYYCVRMPSHGFWSTSFSYWYFDLWGRGTLVTVSS VL: not shown | 1400 |  |  |
| LN01 UCA/UCA (antibody, V domains shown, also called the UCA version of LN01; source: Expi293F, transient transfection (PEI), purified by protein A chromatography) VH: QLQLQESGPGLVKPSETLSLTCTVSGGSISSSSYYWGWIRQPPGKGLEWIGSIYYSGSTYYNPSLKSRVTISVDTSKNQFSLKLSSVTAADTAVYYCVRMPSHGFWSGYFSYWYFDLWGRGTLVTVSS VL: not shown |  | no binding |  |
| LN01 UCA/sL (antibody, V domains shown, IgG; source: Expi293F, transient transfection (PEI), purified by protein A chromatography) VH: QLQLQESGPGLVKPSETLSLTCTVSGGSISSSSYYWGWIRQPPGKGLEWIGSIYYSGSTYYNPSLKSRVTISVDTSKNQFSLKLSSVTAADTAVYYCVRMPSHGFWSGYFSYWYFDLWGRGTLVTVSS VL: DIQMTQSPSSLSASVGDKVTITCRASQSVTKYLNWYQFKTGQAPRILIYGTYTLLSGVSPRFSGAGSGSLYTLTITNIQPEDFATYYCQQAHSTPWTFGQGTHVAAN |  | no binding |  |
| LN01 UCA/gL (antibody, V domains shown, IgG; source: Expi293F, transient transfection (PEI), purified by protein A chromatography) VH: QLQLQESGPGLVKPSETLSLTCTVSGGSISSSSYYWGWIRQPPGKGLEWIGSIYYSGSTYYNPSLKSRVTISVDTSKNQFSLKLSSVTAADTAVYYCVRMPSHGFWSGYFSYWYFDLWGRGTLVTVSS VL: not shown |  | no binding |  |
